In patent publication US20200369765A1 (INNATE PHARMA, published 2020):
Numbering of substitutions follows the chain as printed. Each block holds one binder with its values, some of them ahead of it.

What was measured:
Cynomolgus Siglec = molecular target: T1, Cynomolgus Siglec (cynomolgus); assay: flow cytometry, CHO transfectants
T1 construct: Expressed on transfected CHO cells; also called Siglec-Cyno; cynoSiglec
Protocol: (§1) Binding of antibodies on human Siglec-7, human Siglec-9 and Cynomolgus Siglec-9 was tested by titration experiment by flow cytometry on CHO cells transfected with human Siglec-7 and human Siglec-9 and Cynomolgus Siglec-9. Cells were incubated 1h in Staining Buffer (SB) with primary antibodies at 20 ug/ml and a series of dilution of 1:5. They were washed three times with SB, then incubated 30 min with a goat F(ab′)² Anti-human IgG (Fc) PE (Beckman Coulter #1M05510), and washed twice with SB.

Human Siglec-7 [1] = molecular target: T2, Human Siglec-7 (human, UniProt Q9Y286 19-467); assay: flow cytometry, CHO transfectants
T2 construct: Expressed on transfected CHO cells; also called huSiglec-7; CD328
Protocol: as §1

Human Siglec-9 = molecular target: T3, Human Siglec-9 (human, UniProt Q9Y336 18-463); assay: flow cytometry, CHO transfectants
T3 construct: On transfected CHO cells; also on YTS and KHYG-1 transfectants, primary NK cells and moDC; also called huSiglec-9; CD329
Protocol: as §1

Human Siglec-11 = molecular target: T4, Human Siglec-11 (human, UniProt Q96RL6 29-698); assay: flow cytometry, CHO transfectants
T4 construct: Expressed on transfected CHO cells; also called HuSiglec-11
T4 sequence: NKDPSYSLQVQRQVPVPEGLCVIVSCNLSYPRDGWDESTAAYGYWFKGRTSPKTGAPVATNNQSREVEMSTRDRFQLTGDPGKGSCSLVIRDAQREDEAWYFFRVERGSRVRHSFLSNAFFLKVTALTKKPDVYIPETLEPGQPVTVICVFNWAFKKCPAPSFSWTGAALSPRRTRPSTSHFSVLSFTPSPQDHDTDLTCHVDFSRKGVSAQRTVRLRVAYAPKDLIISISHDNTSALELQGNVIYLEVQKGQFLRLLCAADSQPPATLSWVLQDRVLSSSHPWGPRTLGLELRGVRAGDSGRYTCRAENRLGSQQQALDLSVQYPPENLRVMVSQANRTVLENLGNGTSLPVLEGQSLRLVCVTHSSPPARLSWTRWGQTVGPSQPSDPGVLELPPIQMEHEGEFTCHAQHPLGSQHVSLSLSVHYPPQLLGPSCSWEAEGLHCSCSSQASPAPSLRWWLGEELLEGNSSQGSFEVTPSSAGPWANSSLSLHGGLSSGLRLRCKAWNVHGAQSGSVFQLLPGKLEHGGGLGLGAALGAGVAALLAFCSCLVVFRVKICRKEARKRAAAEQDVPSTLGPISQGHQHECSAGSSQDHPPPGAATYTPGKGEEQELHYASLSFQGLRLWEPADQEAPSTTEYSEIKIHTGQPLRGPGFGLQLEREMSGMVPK

Human Siglec-5 = molecular target: T5, Human Siglec-5 (human, UniProt O15389 17-551); assay: flow cytometry, CHO transfectants
T5 construct: Expressed on transfected CHO cells; also called HuSiglec-5
T5 sequence: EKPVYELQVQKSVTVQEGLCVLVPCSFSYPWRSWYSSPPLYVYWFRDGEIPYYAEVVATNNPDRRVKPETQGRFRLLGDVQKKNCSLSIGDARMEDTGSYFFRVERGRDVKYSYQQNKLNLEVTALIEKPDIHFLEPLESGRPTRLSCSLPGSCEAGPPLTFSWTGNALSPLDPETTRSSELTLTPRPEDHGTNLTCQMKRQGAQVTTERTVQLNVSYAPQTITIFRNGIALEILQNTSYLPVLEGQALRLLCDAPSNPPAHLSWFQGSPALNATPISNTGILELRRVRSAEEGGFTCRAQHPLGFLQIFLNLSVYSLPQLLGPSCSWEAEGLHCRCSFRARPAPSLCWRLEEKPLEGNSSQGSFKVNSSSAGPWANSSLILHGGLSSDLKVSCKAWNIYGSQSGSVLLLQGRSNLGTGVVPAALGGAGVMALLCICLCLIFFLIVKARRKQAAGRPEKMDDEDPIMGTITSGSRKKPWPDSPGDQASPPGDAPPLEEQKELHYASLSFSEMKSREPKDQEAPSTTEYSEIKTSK

Human Siglec-6 = molecular target: T6, Human Siglec-6 (human, UniProt O43699 27-453); assay: flow cytometry, CHO transfectants
T6 construct: Expressed on transfected CHO cells; also called HuSiglec-6

Human Siglec-3 = molecular target: T7, Human Siglec-3 (human, UniProt P20138 18-364); assay: flow cytometry, CHO transfectants
T7 construct: Expressed on transfected CHO cells; also called HuSiglec-3; CD33

Human Siglec-10 = molecular target: T8, Human Siglec-10 (human, UniProt Q96LC7 17-697); assay: flow cytometry, CHO transfectants
T8 construct: Expressed on transfected CHO cells; also called HuSiglec-10
T8 sequence: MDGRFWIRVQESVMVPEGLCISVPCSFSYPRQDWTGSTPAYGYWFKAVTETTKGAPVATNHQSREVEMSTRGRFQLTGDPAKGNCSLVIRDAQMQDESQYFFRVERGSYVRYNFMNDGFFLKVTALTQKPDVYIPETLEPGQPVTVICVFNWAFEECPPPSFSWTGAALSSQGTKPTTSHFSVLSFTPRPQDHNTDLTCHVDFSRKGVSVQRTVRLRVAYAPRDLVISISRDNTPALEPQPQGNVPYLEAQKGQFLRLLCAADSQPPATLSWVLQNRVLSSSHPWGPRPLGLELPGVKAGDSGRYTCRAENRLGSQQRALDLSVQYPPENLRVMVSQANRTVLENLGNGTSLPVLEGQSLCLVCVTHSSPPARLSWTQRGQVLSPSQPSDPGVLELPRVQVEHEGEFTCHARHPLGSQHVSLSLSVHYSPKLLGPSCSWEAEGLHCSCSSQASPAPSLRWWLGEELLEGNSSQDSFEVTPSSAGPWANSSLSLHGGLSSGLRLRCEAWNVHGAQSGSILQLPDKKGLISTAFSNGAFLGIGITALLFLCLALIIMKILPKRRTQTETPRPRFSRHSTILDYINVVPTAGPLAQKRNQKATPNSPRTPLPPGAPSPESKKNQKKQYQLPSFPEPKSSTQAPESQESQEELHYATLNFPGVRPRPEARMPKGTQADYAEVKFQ

Human Siglec-12 = molecular target: T9, Human Siglec-12 (human, UniProt Q96PQ1 19-595); assay: flow cytometry, CHO transfectants
T9 construct: Expressed on transfected CHO cells; also called HuSiglec-12

Human Siglec-8 = molecular target: T10, Human Siglec-8 (human, UniProt Q9NYZ4 17-499); assay: flow cytometry, CHO transfectants
T10 construct: Expressed on transfected CHO cells; also called HuSiglec-8

[2] = molecular target: T11, Human Siglec-9 N-terminal V-set Ig-like domain (human); assay: flow cytometry, HEK293T cells expressing single Siglec-9 domains
T11 construct: expressed on HEK293T cells

Human Siglec-7 [3] = molecular target: T2, Human Siglec-7; assay: flow cytometry, CHO transfectants; remark: listed apart in the source

T3 sequence (Q9Y336 18-463): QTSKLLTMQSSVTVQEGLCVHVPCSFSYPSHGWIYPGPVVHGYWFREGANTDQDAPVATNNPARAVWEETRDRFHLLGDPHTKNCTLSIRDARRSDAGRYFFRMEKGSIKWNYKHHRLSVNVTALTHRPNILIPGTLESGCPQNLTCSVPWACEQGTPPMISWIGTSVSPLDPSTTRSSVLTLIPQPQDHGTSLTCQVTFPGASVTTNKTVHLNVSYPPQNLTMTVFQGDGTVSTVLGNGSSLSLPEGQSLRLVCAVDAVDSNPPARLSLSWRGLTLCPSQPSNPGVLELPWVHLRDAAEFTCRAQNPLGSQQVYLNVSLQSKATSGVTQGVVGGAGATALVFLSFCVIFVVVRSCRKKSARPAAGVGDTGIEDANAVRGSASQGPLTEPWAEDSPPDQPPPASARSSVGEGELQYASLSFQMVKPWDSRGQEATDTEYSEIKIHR
T9 sequence (Q96PQ1 19-595): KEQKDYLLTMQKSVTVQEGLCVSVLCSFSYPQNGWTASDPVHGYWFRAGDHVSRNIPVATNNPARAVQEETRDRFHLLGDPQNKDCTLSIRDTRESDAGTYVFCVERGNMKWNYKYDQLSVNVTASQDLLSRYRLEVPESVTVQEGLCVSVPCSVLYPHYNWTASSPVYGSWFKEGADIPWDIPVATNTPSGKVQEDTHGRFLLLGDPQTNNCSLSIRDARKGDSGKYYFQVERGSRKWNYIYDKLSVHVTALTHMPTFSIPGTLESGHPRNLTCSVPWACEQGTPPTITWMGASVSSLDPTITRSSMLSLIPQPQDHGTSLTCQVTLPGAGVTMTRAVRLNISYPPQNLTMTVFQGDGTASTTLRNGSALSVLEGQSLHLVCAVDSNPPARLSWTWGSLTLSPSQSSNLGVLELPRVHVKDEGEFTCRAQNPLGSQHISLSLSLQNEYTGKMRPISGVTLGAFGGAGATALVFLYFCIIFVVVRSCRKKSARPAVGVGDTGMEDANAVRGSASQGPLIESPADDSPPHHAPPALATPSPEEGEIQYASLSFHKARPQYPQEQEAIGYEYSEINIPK
T7 sequence (P20138 18-364 R69G): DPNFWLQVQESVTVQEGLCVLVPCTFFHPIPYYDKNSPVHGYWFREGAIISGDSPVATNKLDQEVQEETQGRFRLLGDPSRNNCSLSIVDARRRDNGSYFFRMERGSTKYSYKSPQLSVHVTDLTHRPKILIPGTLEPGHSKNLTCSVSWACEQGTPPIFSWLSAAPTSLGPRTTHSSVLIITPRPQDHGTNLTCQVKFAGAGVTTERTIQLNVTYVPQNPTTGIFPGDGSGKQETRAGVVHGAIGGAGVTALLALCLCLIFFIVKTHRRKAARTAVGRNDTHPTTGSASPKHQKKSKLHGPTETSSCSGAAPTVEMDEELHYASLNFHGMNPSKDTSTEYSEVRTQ
T1 sequence (chain, as listed by the source limits assumed): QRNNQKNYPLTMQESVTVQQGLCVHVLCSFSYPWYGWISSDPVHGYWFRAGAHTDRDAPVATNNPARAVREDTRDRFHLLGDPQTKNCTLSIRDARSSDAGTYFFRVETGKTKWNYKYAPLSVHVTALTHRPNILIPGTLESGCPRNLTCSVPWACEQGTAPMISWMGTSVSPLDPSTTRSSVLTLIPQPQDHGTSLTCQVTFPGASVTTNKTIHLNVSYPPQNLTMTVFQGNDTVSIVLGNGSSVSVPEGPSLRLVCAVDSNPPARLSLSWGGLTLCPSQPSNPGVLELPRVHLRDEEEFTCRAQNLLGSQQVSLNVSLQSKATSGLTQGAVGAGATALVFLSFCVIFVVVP
T6 sequence (O43699 other isoform, or with tags, fused parts or gaps): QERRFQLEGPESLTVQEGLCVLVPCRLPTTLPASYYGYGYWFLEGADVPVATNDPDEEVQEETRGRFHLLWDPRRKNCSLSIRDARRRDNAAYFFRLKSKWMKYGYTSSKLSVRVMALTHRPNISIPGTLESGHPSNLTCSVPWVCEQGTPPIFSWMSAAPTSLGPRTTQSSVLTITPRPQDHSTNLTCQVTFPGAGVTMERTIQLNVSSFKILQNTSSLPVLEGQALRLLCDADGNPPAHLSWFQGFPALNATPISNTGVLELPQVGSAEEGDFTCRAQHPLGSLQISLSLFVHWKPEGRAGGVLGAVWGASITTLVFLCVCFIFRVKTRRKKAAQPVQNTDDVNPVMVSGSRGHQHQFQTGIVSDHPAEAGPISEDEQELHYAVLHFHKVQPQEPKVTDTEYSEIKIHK
T10 sequence (Q9NYZ4 17-499): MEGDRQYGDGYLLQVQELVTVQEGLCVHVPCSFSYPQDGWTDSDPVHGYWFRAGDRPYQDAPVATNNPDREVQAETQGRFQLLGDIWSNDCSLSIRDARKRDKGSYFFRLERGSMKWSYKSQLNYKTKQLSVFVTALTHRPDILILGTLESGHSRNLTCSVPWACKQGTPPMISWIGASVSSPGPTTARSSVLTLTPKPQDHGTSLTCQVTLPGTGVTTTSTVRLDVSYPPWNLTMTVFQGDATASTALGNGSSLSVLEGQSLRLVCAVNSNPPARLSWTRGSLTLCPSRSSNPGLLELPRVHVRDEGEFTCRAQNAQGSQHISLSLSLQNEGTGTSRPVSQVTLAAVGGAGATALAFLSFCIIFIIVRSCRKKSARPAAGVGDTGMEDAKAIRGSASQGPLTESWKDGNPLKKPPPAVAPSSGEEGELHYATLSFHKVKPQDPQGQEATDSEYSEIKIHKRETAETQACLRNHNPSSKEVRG
T2 sequence (Q9Y286 19-467): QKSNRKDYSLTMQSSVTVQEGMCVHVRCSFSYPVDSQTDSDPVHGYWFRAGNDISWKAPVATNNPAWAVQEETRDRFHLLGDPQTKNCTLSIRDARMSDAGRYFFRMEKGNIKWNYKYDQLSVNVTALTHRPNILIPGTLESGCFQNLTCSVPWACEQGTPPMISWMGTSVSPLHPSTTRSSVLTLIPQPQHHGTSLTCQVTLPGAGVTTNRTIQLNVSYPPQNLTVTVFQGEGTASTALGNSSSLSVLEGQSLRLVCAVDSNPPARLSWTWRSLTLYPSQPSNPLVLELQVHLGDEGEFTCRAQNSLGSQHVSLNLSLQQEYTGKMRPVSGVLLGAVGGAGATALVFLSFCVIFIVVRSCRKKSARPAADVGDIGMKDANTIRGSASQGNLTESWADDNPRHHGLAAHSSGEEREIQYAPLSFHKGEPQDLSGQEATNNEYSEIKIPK
T11 sequence (chain, as listed by the source limits assumed): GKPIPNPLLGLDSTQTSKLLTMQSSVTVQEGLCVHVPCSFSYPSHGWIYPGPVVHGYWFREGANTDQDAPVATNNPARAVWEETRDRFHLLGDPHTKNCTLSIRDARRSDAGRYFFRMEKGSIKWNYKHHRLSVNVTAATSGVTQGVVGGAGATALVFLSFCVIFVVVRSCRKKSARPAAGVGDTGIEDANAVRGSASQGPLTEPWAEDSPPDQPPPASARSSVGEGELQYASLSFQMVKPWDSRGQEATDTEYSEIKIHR

EC50 (Cynomolgus Siglec): 0.67 mg/L
EC50 (Human Siglec-7 [1]): 0.21 mg/L
EC50 (Human Siglec-9): 0.11 mg/L
binding result (Human Siglec-11): no binding
binding result (Human Siglec-5): no binding
binding result (Human Siglec-6): no binding
binding result (Human Siglec-3): no binding
binding result (Human Siglec-10): no binding
binding result (Human Siglec-12): binds
binding result (Human Siglec-8): no binding
binding result [2]: binds
B1: mAb1 (antibody, human IgG1, V domains shown)
VH: DVQLQESGPGLVKPSQSLSLTCTVTGYSITGGFAWNWIRQFPGNTLEWMGYIGYGGSTSYNPSLNSRISITRDTSKNHFFLQFNSVTTDDSATYYCARGDYLFAYWGQGTLVTVSA
VL: DIVMTQSHKFMSTSVGDRVSITCKASQDVNTAVAWYQQKPGQSPKLLIYSASYRYTGVPDRFTGSGSGTDFTFTISSVQAEDLAVYYCQQHYSTPRTFGGGTKLEIK

EC50 (Cynomolgus Siglec): 0.85 mg/L
EC50 (Human Siglec-7 [1]): 0.22 mg/L
EC50 (Human Siglec-9): 0.23 mg/L
binding result (Human Siglec-11): no binding
binding result (Human Siglec-5): no binding
binding result (Human Siglec-6): no binding
binding result (Human Siglec-3): no binding
binding result (Human Siglec-10): no binding
binding result (Human Siglec-12): binds
binding result (Human Siglec-8): no binding
binding result [2]: binds
B2: mAb3 (antibody, human IgG1, V domains shown)
VH: B1 VH with D1E, Q5L, S7T, D89E
VL: DILMTQSPASLSASVGETVSITCRASGNIHNYLAWYLQRQGKSPQLLVYNAKTLADGVPSRFSGTGSGTQFSLKINSLQPEDFGSYYCQHFWSTPRTFGGGTKLEIK

EC50 (Cynomolgus Siglec): 0.53 mg/L
EC50 (Human Siglec-7 [1]): 0.17 mg/L
EC50 (Human Siglec-9): 0.08 mg/L
binding result (Human Siglec-11): no binding
binding result (Human Siglec-5): no binding
binding result (Human Siglec-6): no binding
binding result (Human Siglec-3): no binding
binding result (Human Siglec-10): no binding
binding result (Human Siglec-12): binds
binding result (Human Siglec-8): no binding
binding result [2]: binds
B3: mAb2 (antibody, human IgG1, V domains shown)
VH: B1 VH with D1E, D89E
VL: B1 VL

EC50 (Cynomolgus Siglec): 0.14 mg/L
EC50 (Human Siglec-7 [1]): 0.22 mg/L
EC50 (Human Siglec-9): 0.26 mg/L
binding result (Human Siglec-11): no binding
binding result (Human Siglec-5): no binding
binding result (Human Siglec-6): no binding
binding result (Human Siglec-3): no binding
binding result (Human Siglec-10): no binding
binding result (Human Siglec-12): no binding
binding result (Human Siglec-8): no binding
B4: mAb5 (antibody, human IgG1, V domains shown)
VH: EIQLQQSGPELEKPGASVKISCKASGYSFSDYNMNWVKQSNGKSLEWIGNIDPYYGATSYNQRFKGKATLTVDKSSSTAYMQLKSLTSEDSAVYYCARGDSLFAYWGHGTLVTVSA
VL: DIVMTQSQEFMSTSLGDRVSVTCKASQNVGTNVAWYQQKPGQSPKALLYSASSRYSGVPDRFTGSGSGTDFTLTISNVQSEDLAEYFCQQYITYPYTFGGGTKLEIK

EC50 (Cynomolgus Siglec): 0.17 mg/L
EC50 (Human Siglec-7 [1]): 0.33 mg/L
EC50 (Human Siglec-9): 0.31 mg/L
binding result (Human Siglec-11): no binding
binding result (Human Siglec-5): no binding
binding result (Human Siglec-6): no binding
binding result (Human Siglec-3): no binding
binding result (Human Siglec-10): no binding
binding result (Human Siglec-12): no binding
binding result (Human Siglec-8): no binding
B5: mAb6 (antibody, human IgG1, V domains shown)
VH: B4 VH with H108Q
VL: B4 VL with S76N, V78M

binding result (Human Siglec-11): no binding
binding result (Human Siglec-5): no binding
binding result (Human Siglec-6): no binding
binding result (Human Siglec-3): no binding
binding result (Human Siglec-10): no binding
binding result (Human Siglec-12): no binding
binding result (Human Siglec-8): no binding
binding result (Human Siglec-7 [3]): no binding
binding result [2]: binds
B6: mAbC (antibody, human IgG1, V domains shown)
VH: QIQLVQSGPELKKPGETVKISCKASGYTFTNYEMNWVKEAPGKGLKWMGWINTYTGESTYADDFKGRFAFSLETSASTVYLQINNLKDEDVATYFCVRDDYGRSYGFAYWGQGTLVTVSA
VL: NIVLTQSPASLTVSLGQRANISCRASESVDSYGNSFMHWYQQKPGQPPKLLIYLASKLESGVPARFSGSGSRTDFTLTIDPVETDDAATYYCHQNNEDPPWTFGGGTKLEIK

binding result (Human Siglec-11): no binding
binding result (Human Siglec-5): no binding
binding result (Human Siglec-6): no binding
binding result (Human Siglec-3): no binding
binding result (Human Siglec-10): no binding
binding result (Human Siglec-12): no binding
binding result (Human Siglec-8): no binding
binding result (Human Siglec-7 [3]): no binding
binding result [2]: binds
B7: mAbA (antibody, human IgG1, V domains shown)
VH: QVQLQQPGAELVKPGSPVKLSCKASYFTFTSYWMHWVRQRPGQGLEWIGEINPSNGHTNYNEKFESKATLTVDRSSSTAYMQLSSLTSEDSAVFYCANGVESYDFDDALDYWGQGTSVTVSS
VL: DIQMTQTTSSLSASLGDRVTISCRASQDINNYLNWYQQKPDGTIKLLIYYTSRLHSGVPSRFSGSGSGTDYSLTINNLEQEDIATYFCQQGNTLPFTFGGGTKLEIK

EC50 (Cynomolgus Siglec): 0.17 mg/L
EC50 (Human Siglec-7 [1]): 0.17 mg/L
EC50 (Human Siglec-9): 0.28 mg/L
binding result (Human Siglec-11): no binding
binding result (Human Siglec-5): no binding
binding result (Human Siglec-6): no binding
binding result (Human Siglec-3): no binding
binding result (Human Siglec-10): no binding
binding result (Human Siglec-12): no binding
binding result (Human Siglec-8): no binding
B8: mAb4 (antibody, human IgG1, V domains shown)
VH: DVQLVESGGDLVKPGGSLKLSCAASGFAFSSYDMSWVRQSPEKRLEWIAHIGSGGGNIYYPDTVKGRFTISRDNAKNTLYLQMRSLKSEDTAMYYCARLIFTTGFYGMDYWGQGTSVTVSS
VL: B7 VL with N30S, N31S, N76S, E79D, E81D, T93A, F96W
